In publication PMC5099905:

Target: E-cadherin (canine (endogenous in MDCK))
Assay: co-IP; 1 mg MDCK lysate (RIPA buffer) from Mock or DDR1-knockdown (Sh-DDR1) cells, incubated overnight at 4 °C with 1 μg anti-E-cadherin antibody, protein G-sepharose beads; immunoblot with anti-clathrin heavy chain; control antibody as negative control

fold increase of the clathrin/E-cadherin co-IP ratio, Sh-DDR1 cells against Mock cells: 3.5 fold
Substance: clathrin heavy chain (natural protein)
